Measurements from the supplement of paper PMC7877785.
± gives the uncertainty stated by the source.

Assay: self-splicing fitness, log relative to wild type (ln ratio); higher = more splicing; Tetrahymena group I intron in knt gene, E. coli kanamycin selection, DiMSum; sequences stand for … in CUCUCU…GGAGGGAAAAGUUAUCAGGCAUGCACCUGGUAGCUAGUCUUUAAACCAAUAGAUUGCAUCGGUUUAAAAGGCAAGACCGUCAAAUUGCGGGAAAGGGGUCAACAGCCGUUCAGUACCAAGUCUCAGGGGAAACUUUGAGAUGGCCUUGCAAAGGGUAUGGUAAUAAGCUGACGGACAUGGUCCUAACCACGCAGCCAAGUCCUAAGUCAACAGAUCUUCUGUUGAUAUGGAUGCAGUUCACAGACUAAAUGUCGGUCGGGGAAGAUGUAUUCUUCUCAUAAGAUAUAGUCGGACCUCUCCUUAAUGGGAGCUAGCGGAUGAAGUGAUGCAACACUGGAGCCGCUGGGAACUAAUUUGUAUGCGAAAGUAUAUUGAUUAGUUUUGGAGUACUCGUGGUCG
Method in brief: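 Pooled colonies went to amplicon sequencing on an Illumina HiSeq 2500 after six replicate transformations. The plates were LB agar with 100 μg/mL carbenicillin, 50 μM IPTG and 0.2% rhamnose, with or without 25 μg/mL kanamycin, incubated overnight at 37°C or 30°C. The E. coli BL21(DE3) library had all eight P1ex-region intron nucleotides randomised, the intron placed in the knt kanamycin-resistance gene on pET-22b(+). DiMSum fitness is the error-weighted combination of replicate fold changes, kanamycin against none, normalised to wild type.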

Sequence | self-splicing fitness (ln) (30 °C) | self-splicing fitness (ln) (37 °C)
GAGCAGCAAUAUUACGUUAC | -2.55 ± 0.14 | -1.75 ± 0.13
UGACAGCAAUAUUACGCUCU | -0.946 ± 0.083 | -0.389 ± 0.093
GUCCAGCAAUAUUACGAAUU | -0.818 ± 0.078 | 0.257 ± 0.097
UCAGAGCAAUAUUACGGUAC | -2.06 ± 0.3 | 
GUCUAGCAAUAUUACGAUUA | -0.177 ± 0.17 | 0.177 ± 0.12
CCGCAGCAAUAUUACGUAGC |  | -0.697 ± 0.22
AUUAAGCAAUAUUACGAUUG | -2.98 ± 0.15 | -1.86 ± 0.2
GGGCAGCAAUAUUACGAGAC | -3.12 ± 0.26 | -1.74 ± 0.19
CAUAAGCAAUAUUACGUUGG | -2.6 ± 0.095 | -1.26 ± 0.094
AGGGAGCAAUAUUACGGAAA | -2.4 ± 0.34 | -2.34 ± 0.42
AACGAGCAAUAUUACGAACG | -3.03 ± 0.45 | -1.37 ± 0.28
UGAGAGCAAUAUUACGCUGC | -2.67 ± 0.42 | 
GCUUAGCAAUAUUACGCCGC | -3.07 ± 0.5 | 
UACGAGCAAUAUUACGAACU | -3.46 ± 0.48 | -2.4 ± 0.24
GGGUAGCAAUAUUACGCUGA | -2.05 ± 0.15 | 0.00831 ± 0.17
CAUGAGCAAUAUUACGAUCU | -2.9 ± 0.36 | -2.37 ± 0.3
ACACAGCAAUAUUACGCCCA | -1.49 ± 0.075 | -0.603 ± 0.073
UAGCAGCAAUAUUACGCGUA | -1.2 ± 0.1 | 0.478 ± 0.1
AGAAAGCAAUAUUACGUUGU | -4.11 ± 0.14 | -1.88 ± 0.099
AUACAGCAAUAUUACGGACA | -1.55 ± 0.13 | -0.413 ± 0.13
CAAUAGCAAUAUUACGGGCA | -2.46 ± 0.28 | -2.89 ± 0.25
UCUCAGCAAUAUUACGAUAA | -2.15 ± 0.21 | -1.33 ± 0.21
UCUCAGCAAUAUUACGGACA | -0.71 ± 0.099 | -0.369 ± 0.1
GAGAAGCAAUAUUACGCUUA | -2.41 ± 0.12 | -1.24 ± 0.13
CACAAGCAAUAUUACGUACA | -3.03 ± 0.1 | -1.46 ± 0.1

Sequence | self-splicing fitness (ln) (30 °C) | self-splicing fitness (ln) (37 °C)
UCUCAGCAAUAUUACGCCCA | -0.778 ± 0.12 | -1.88 ± 0.18
GAAUAGCAAUAUUACGUCAC | -2.47 ± 0.17 | -1.31 ± 0.17
UACUAGCAAUAUUACGCCAG | -0.0426 ± 0.17 | -1.03 ± 0.29
UAUAAGCAAUAUUACGACGU | -1.12 ± 0.11 | -0.116 ± 0.11
GAGCAGCAAUAUUACGUGCC | -1.58 ± 0.41 | -1.34 ± 0.26
GCUCAGCAAUAUUACGAAUC | -0.406 ± 0.081 | -0.385 ± 0.082
AAGGAGCAAUAUUACGCAUA | -2.45 ± 0.49 | 
AGAAAGCAAUAUUACGGAAG | -2.64 ± 0.19 | -1.71 ± 0.22
ACCUAGCAAUAUUACGCAGC | -1.43 ± 0.095 | -1.46 ± 0.12
UGGGAGCAAUAUUACGUUUA | -2.62 ± 0.29 | -2.92 ± 0.33
UCUCAGCAAUAUUACGAUCC |  | -1.66 ± 0.37
UCAUAGCAAUAUUACGCGUU | -3.38 ± 0.27 | -3.03 ± 0.27
CCCGAGCAAUAUUACGUGAG | -3.58 ± 0.19 | -2.77 ± 0.24
UUGUAGCAAUAUUACGGUUG | -2.38 ± 0.12 | -0.9 ± 0.12
UCUCAGCAAUAUUACGCCAG | -1.94 ± 0.25 | -1.2 ± 0.34
CAGCAGCAAUAUUACGAUAG | -0.297 ± 0.063 | -0.0435 ± 0.077
GUCCAGCAAUAUUACGCGCG | -1.58 ± 0.093 | -0.665 ± 0.096
GCGGAGCAAUAUUACGGAGU | -2.51 ± 0.33 | -2.1 ± 0.29
GACGAGCAAUAUUACGUAGU | -2.9 ± 0.26 | -1.88 ± 0.3
UGCUAGCAAUAUUACGCUAU | -2.75 ± 0.21 | -0.801 ± 0.12
GAUUAGCAAUAUUACGCAAU | -2.41 ± 0.33 | -1.9 ± 0.36
AGUUAGCAAUAUUACGCCUA | -1.11 ± 0.16 | -0.149 ± 0.13
UUGCAGCAAUAUUACGGUAA | -0.988 ± 0.099 | -0.0317 ± 0.093
CGUCAGCAAUAUUACGUUAC | -2.78 ± 0.21 | -3.22 ± 0.24
CGCUAGCAAUAUUACGCGAU | -3.59 ± 0.19 | -2.25 ± 0.2

Sequence | self-splicing fitness (ln) (30 °C) | self-splicing fitness (ln) (37 °C)
GCGCAGCAAUAUUACGAAAA | -1.92 ± 0.21 | -1.7 ± 0.21
AAAGAGCAAUAUUACGUGCG | -2.69 ± 0.12 | -1.82 ± 0.13
AUGCAGCAAUAUUACGGUAG | -3.81 ± 0.16 | -2.4 ± 0.14
CCACAGCAAUAUUACGCUGG | -4.04 ± 0.22 | -2.58 ± 0.2
GAUUAGCAAUAUUACGGACU | -0.413 ± 0.086 | -0.223 ± 0.1
CCCAAGCAAUAUUACGUUGA | -3.74 ± 0.14 | -3.04 ± 0.14
GGGCAGCAAUAUUACGACUG | -2.84 ± 0.2 | -0.716 ± 0.27
UGAUAGCAAUAUUACGUUGC | -2.16 ± 0.17 | -2.32 ± 0.28
AGGCAGCAAUAUUACGUUGG | -3.79 ± 0.2 | -1.45 ± 0.11
CGGGAGCAAUAUUACGAACA |  | -1.37 ± 0.22
UAGGAGCAAUAUUACGACAG | -2.19 ± 0.33 | 
GCGAAGCAAUAUUACGACGG | -1.27 ± 0.21 | -0.313 ± 0.33
AGUGAGCAAUAUUACGUACA | -1.72 ± 0.28 | -0.682 ± 0.36
UGAUAGCAAUAUUACGCAUC |  | -1.53 ± 0.49
AUUAAGCAAUAUUACGUACC | -2.05 ± 0.23 | 0.0479 ± 0.26
GCCGAGCAAUAUUACGAGGU | -4 ± 0.3 | -2.23 ± 0.25
AUACAGCAAUAUUACGAAUG | -2.16 ± 0.14 | -2.7 ± 0.19
CCCAAGCAAUAUUACGGUAU | -4.33 ± 0.23 | -2.51 ± 0.21
GUCAAGCAAUAUUACGUGUU | -2.85 ± 0.089 | -1.35 ± 0.089
UUGUAGCAAUAUUACGAUUU | -3.15 ± 0.25 | -1.91 ± 0.24
CCGGAGCAAUAUUACGUGCA | -3.1 ± 0.35 | -2.06 ± 0.29
GUAUAGCAAUAUUACGAUAG | -1.67 ± 0.099 | -0.533 ± 0.1
ACCUAGCAAUAUUACGCACG | -0.85 ± 0.099 | 0.0662 ± 0.12
GAGGAGCAAUAUUACGACGG | -3.25 ± 0.3 | -2.07 ± 0.31
CCUAAGCAAUAUUACGCGGC | -1.89 ± 0.33 | -2.13 ± 0.42

Sequence | self-splicing fitness (ln) (30 °C) | self-splicing fitness (ln) (37 °C)
ACGCAGCAAUAUUACGUAAA | -2.06 ± 0.12 | -1.95 ± 0.2
GGUCAGCAAUAUUACGAUUG | -0.673 ± 0.073 | 0.0247 ± 0.097
CAUCAGCAAUAUUACGUUGA | -3 ± 0.15 | -3.46 ± 0.24
CGUCAGCAAUAUUACGCAGU | -2.96 ± 0.2 | -2.12 ± 0.18
GAAUAGCAAUAUUACGUGAG | -1.19 ± 0.057 | -0.737 ± 0.1
GAACAGCAAUAUUACGUAUC | -2.83 ± 0.1 | -1.39 ± 0.12
AAUUAGCAAUAUUACGAGGU | -3.26 ± 0.2 | -3.02 ± 0.24
UAAAAGCAAUAUUACGUGAC |  | -3.43 ± 0.46
GGCAAGCAAUAUUACGGUCG | -0.22 ± 0.072 | 0.553 ± 0.099
AUGUAGCAAUAUUACGGCUC | 0.231 ± 0.27 | 
ACCUAGCAAUAUUACGGAAC | -3.04 ± 0.24 | 
UGCGAGCAAUAUUACGGGCU | -2.97 ± 0.25 | 
CGCGAGCAAUAUUACGUGUG | -4.51 ± 0.24 | -2.68 ± 0.13
CAGGAGCAAUAUUACGAUAU | -1.88 ± 0.17 | -2.37 ± 0.35
UUACAGCAAUAUUACGCACC | -2.69 ± 0.21 | -0.981 ± 0.23
AAGAAGCAAUAUUACGAUGG | -1.93 ± 0.14 | -2 ± 0.22
ACGAAGCAAUAUUACGCAAC | -3.3 ± 0.25 | -2.38 ± 0.39
AUUGAGCAAUAUUACGCCGU |  | -2.56 ± 0.49
AUGAAGCAAUAUUACGAAAU | -0.819 ± 0.07 | -0.46 ± 0.073
UUCCAGCAAUAUUACGAGGU | -1.96 ± 0.17 | -1.87 ± 0.16
GUCUAGCAAUAUUACGUCCG | -2.96 ± 0.28 | -0.525 ± 0.19
AGUAAGCAAUAUUACGGCCC | -0.317 ± 0.14 | -0.0183 ± 0.22
GCUUAGCAAUAUUACGGCCA |  | -0.846 ± 0.27
CACCAGCAAUAUUACGGUAG | -1.97 ± 0.063 | -1.69 ± 0.09
CACGAGCAAUAUUACGCACA | -2.74 ± 0.19 | -1.17 ± 0.15
